Laboratory results as given in patent US8586538B2, “Method of treating a patient suffering from a bleeding disorder comprising administering an antibody against the A3-C1 of FVIII” (Stichting Sanquin Bloedvoorziening, priority 2002, dated 2013).

What was measured:
[1] = biological target: T1, wild-type recombinant FVIII light chain (Homo sapiens, UniProt P00451); experiment: SPR binding of scFv KM41 to wild-type recombinant FVIII light chain; details: scFv 40 nM
T1 construct: FVIII/FV^1811-1818 light chain chimera and wild-type FVIII light chain were purified employing Q-Sepharose chromatography; made in house; host or cells: murine fibroblasts (C127) cells
T1 sequence (P00451 1668-2351 limits assumed): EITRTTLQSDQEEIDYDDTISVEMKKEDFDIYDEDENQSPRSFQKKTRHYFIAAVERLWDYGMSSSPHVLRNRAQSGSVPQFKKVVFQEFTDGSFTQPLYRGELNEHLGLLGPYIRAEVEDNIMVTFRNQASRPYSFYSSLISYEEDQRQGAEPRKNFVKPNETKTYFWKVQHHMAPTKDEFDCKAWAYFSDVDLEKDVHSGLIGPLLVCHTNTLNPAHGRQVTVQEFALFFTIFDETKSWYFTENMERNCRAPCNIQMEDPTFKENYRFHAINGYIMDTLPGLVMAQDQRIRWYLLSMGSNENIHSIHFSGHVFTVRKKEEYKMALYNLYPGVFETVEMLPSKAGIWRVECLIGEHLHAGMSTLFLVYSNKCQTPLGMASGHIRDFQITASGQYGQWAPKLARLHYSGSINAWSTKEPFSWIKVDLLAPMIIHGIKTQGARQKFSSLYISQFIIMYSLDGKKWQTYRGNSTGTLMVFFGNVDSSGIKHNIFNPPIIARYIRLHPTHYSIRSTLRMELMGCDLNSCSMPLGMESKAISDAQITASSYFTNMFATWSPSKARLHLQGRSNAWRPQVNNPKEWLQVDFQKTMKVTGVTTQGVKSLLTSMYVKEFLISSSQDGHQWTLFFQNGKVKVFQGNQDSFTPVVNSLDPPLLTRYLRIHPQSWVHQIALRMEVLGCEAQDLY
Procedure: FIG. 7. Binding of scFv KM41 to the FVIII/FV^1811-1818 light chain chimera. ScFv EL14 at a CM5 sensor chip (67 fmol/mm^2) was incubated with either the recombinant wild-type FVIII light chain or the recombinant FVIII/FV^1811-1818 chimera till a density of 20 fmol/mm^2, in 150 mM NaCl, 50 mM Tris (pH 7.4). ScFv KM41 (40 nM) was passed over two separate channels with immobilized intact FVIII light chain (I) or FVIII/FV^1811-1818 chimera (II), respectively. Response is indicated as Resonance Units (RU) and is corrected for nonspecific binding.
The kinetics of protein interactions was determined by surface plasmon resonance (SPR) analysis, employing a BIAcore™2000 biosensor system (Biacore AS, Uppsala, Sweden). […] Association of analyte was assessed in 150 mM NaCl, 2 mM CaCl2, 0.005% (v/v) Tween® 20, and 20 mM Hepes (pH 7.4) for 2 min, at a flow rate of 20 μl/min at 25° C. […] The association (kon) and dissociation (koff) rate constants were determined by using the BIAevaluation software 3.1 (Biacore AB, Uppsala, Sweden). […] Equilibrium dissociation constants (kd) were calculated from the ratio koff/kon. […]

FVIIIa-FIXa complex = FVIIIa-FIXa complex (Homo sapiens, UniProt P00451+P00740); details: by interfering with the assembly of the FVIIIa-FIXa complex; cited from earlier work
Sequence of FVIIIa-FIXa complex (P00740 47-191 limits assumed, one chain of several): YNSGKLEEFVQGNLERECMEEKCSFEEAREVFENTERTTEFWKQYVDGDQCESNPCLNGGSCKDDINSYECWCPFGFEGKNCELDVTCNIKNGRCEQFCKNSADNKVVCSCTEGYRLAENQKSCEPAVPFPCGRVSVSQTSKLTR

- Binding of scFv to immobilized wild-type recombinant FVIII light chain [1]: readily reacted
B1: scFv KM41: scFv antibody fragment directed against FVIII region Arg^1803-Lys^1818 (protein)
scFv: QVQLLQSAADVKKPGASVKVSCTASGYIFTSYDIDWVRQATGQGLEWMGWMNPNSGNAGFAQKFKGRLTLTRDTSTSTAYMELRRLESEDTAVYYCARSTPHSYSGSGLPPTSDSWGQGTLVTVSSGGGGSGGGGSGGGGSEIVLTQSPGTLSLSPGERATLSCRASQSVSSSFLGWYQQKPGQAPRLLIYGASSRATGIPDRFSGSGSGTDFTLTISRLEPEDFAVYYCQQYGISPLTFGGGTKLEIKRAAAEQKLISEEDLNGAAHHHHHH
- Inhibition of FVIII procoagulant activity (FVIIIa-FIXa complex): effective inhibitors
